Measured values from paper PMC10598736, “Structural insights into Rad18 targeting by the SLF1 BRCT domains” (The Journal of Biological Chemistry, 2023).
Substitutions are numbered along the chain they refer to. Names may count otherwise. Blank lines part the entries; values can stand above or below the molecule they belong to. Square brackets hold non-standard residues; d marks the D form. Ends that are not written are not given here. Peptide text beside a SMILES is read from it. pS = N[C@@H](COP(=O)(O)O)C(=O)O

Assays:
[1] = target: SLF1 tandem BRCT repeat (SLF1^tBRCT), residues 1-199, wild type (UniProt Q9BQI6); experiment: ITC; MicroCal ITC 200, 25 °C, 20 mM Tris (pH 7.5), 200 mM sodium chloride; 1.3 mM Rad18 peptide or 6 mM BRCTide injected into 0.1 mM (Rad18 peptides) or 0.2 mM (BRCTide) SLF1^tBRCT in the cell; three independent repeats
[2] = target: T1, SLF1^tBRCT (residues 1–199), WT (Homo sapiens, UniProt Q9BQI6); experiment: ITC of peptide binding to wild-type SLF1 tBRCT; conditions: 25 °C, 20 mM Tris pH 7.5, 200 mM NaCl; for Kd: 1.3 mM Rad18 peptide into 0.1 mM protein (BRCTide 6 mM into 0.2 mM), average ± SD of three independent repeats, ND = not detected
T1 construct: The coding region for SLF1^tBRCT (residues 1–199) was optimized for expression in E. coli; made in house; host or cells: E. coli BL21 Rosetta (DE3)
T1 sequence (Q9BQI6 1-199): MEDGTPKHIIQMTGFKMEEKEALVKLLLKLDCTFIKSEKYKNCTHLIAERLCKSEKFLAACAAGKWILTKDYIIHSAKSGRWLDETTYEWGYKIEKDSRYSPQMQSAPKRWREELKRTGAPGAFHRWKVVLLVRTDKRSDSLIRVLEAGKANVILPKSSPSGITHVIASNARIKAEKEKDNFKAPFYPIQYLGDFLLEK
Protocol: ITC experiments were carried out on a MicroCal ITC 200 instrument (Malvern) at 25 °C. Prior to the ITC experiments, SLF1^tBRCT was exchanged into a buffer containing 20 mM Tris (pH 7.5) and 200 mM sodium chloride and peptides (Sangon Biotech, Scilight biotechnology, Hefei Scierbio-Tech, Synpeptide) were dissolved in the same buffer. To characterize binding, a solution containing 1.3 mM Rad18 peptide or 6 mM BRCTide was injected into a 300-μl cell that stores 0.1 mM (for binding experiments with Rad18 peptides) or 0.2 mM (for the binding experiment with BRCTide) SLF1^tBRCT, 2 μl at a time. Data were analyzed with ORIGIN 7.0 (Originlab).

[3] = target: T2, SLF1 tandem BRCT repeat (SLF1^tBRCT), residues 1-199, wild type (UniProt Q9BQI6 1-199); experiment: ITC; MicroCal ITC 200, 25 °C, 20 mM Tris (pH 7.5), 200 mM sodium chloride; 1.3 mM Rad18 peptide or 6 mM BRCTide injected into 0.1 mM (Rad18 peptides) or 0.2 mM (BRCTide) SLF1^tBRCT in the cell; three independent repeats; conditions: both partners purified
T2 construct: SMC5/6 localization factor 1 (SLF1), tandem BRCT repeat at the N-terminus, residues 1-199; coding region optimized for E. coli and synthesized; also called WT; SMC5/6 localization factor 1 tBRCT; source: E. coli BL21 Rosetta (DE3), purified (Ni-NTA, heparin, gel filtration)
T2 sequence (looked up): T1 sequence (Q9BQI6 1-199)

[4] = target: T3, SLF1^tBRCT K56A (UniProt Q9BQI6 1-199, K56A); experiment: as above; conditions: both partners purified
T3 construct: SMC5/6 localization factor 1 (SLF1), tandem BRCT repeat, residues 1-199, with K56A; also called K56A-substituted SLF1^tBRCT; source: E. coli BL21 Rosetta (DE3), purified (same protocol as the wild type)
T3 sequence (looked up): T1 sequence (Q9BQI6 1-199) with K56A

[5] = target: T4, SLF1^tBRCT I189A (UniProt Q9BQI6 1-199, I189A); experiment: as above; conditions: both partners purified
T4 construct: SMC5/6 localization factor 1 (SLF1), tandem BRCT repeat, residues 1-199, with I189A; source: E. coli BL21 Rosetta (DE3), purified (same protocol as the wild type)
T4 sequence (looked up): T1 sequence (Q9BQI6 1-199) with I189A

[6] = target: T5, SLF1^tBRCT R50A (UniProt Q9BQI6 1-199, R50A); experiment: as above; conditions: both partners purified
T5 construct: SMC5/6 localization factor 1 (SLF1), tandem BRCT repeat, residues 1-199, with R50A; also called R50A-substituted SLF1^tBRCT; source: E. coli BL21 Rosetta (DE3), purified (same protocol as the wild type)
T5 sequence (looked up): T1 sequence (Q9BQI6 1-199) with R50A

[7] = target: T6, SLF1^tBRCT L142A (UniProt Q9BQI6 1-199, L142A); experiment: as above; conditions: both partners purified
T6 construct: SMC5/6 localization factor 1 (SLF1), tandem BRCT repeat, residues 1-199, with L142A; source: E. coli BL21 Rosetta (DE3), purified (same protocol as the wild type)
T6 sequence (looked up): T1 sequence (Q9BQI6 1-199) with L142A

Molecule: Rad18-NP: unphosphorylated Rad18 peptide of the Ser442/Ser444-containing region (SDSCNSSSSDIIRDLLE)
binding to SLF1^tBRCT by ITC (in words) [2]: undetectable

Molecule: CC[C@H](C)[C@H](NC(=O)[C@H](CC(=O)O)NC(=O)[C@H](COP(=O)(O)O)NC(=O)[C@H](CO)NC(=O)[C@H](COP(=O)(O)O)NC(=O)[C@H](CO)NC(=O)[C@H](CC(N)=O)NC(=O)[C@H](CS)NC(=O)[C@H](CO)NC(=O)[C@H](CC(=O)O)NC(=O)[C@@H](N)CO)C(=O)N[C@H](C(=O)N[C@@H](CCCNC(=N)N)C(=O)N[C@@H](CC(=O)O)C(=O)N[C@@H](CC(C)C)C(=O)N[C@@H](CC(C)C)C(=O)N[C@@H](CCC(=O)O)C(=O)O)[C@@H](C)CC [Rad18-2P] (H-SDSCNS[pS]S[pS]DIIRDLLE-OH)
Kd [2]: 15 ± 3 nM

Molecule: CC[C@H](C)[C@H](NC(=O)[C@H](CC(=O)O)NC(=O)[C@H](CO)NC(=O)[C@H](CO)NC(=O)[C@H](COP(=O)(O)O)NC(=O)[C@H](CO)NC(=O)[C@H](CC(N)=O)NC(=O)[C@H](CS)NC(=O)[C@H](CO)NC(=O)[C@H](CC(=O)O)NC(=O)[C@@H](N)CO)C(=O)N[C@H](C(=O)N[C@@H](CCCNC(=N)N)C(=O)N[C@@H](CC(=O)O)C(=O)N[C@@H](CC(C)C)C(=O)N[C@@H](CC(C)C)C(=O)N[C@@H](CCC(=O)O)C(=O)O)[C@@H](C)CC [Rad18-pS442] (H-SDSCNS[pS]SSDIIRDLLE-OH)
Kd [2]: 156 ± 5 nM

B1: Rad18-2P-R448A peptide (peptide, UniProt Q9NS91 436-452, looked up)
peptide: SDSCNS[pS]S[pS]DIIADLLE
notes: Rad18, human, residues 436-452, with R448A; source: synthetic peptide
Kd [3]: 38 nM
dH [3]: -2.15 kcal/mol
stoichiometry N [3]: 1.63

B2: Rad18-pS442-2LA peptide (L450A/L451A) (peptide, UniProt Q9NS91 436-452, looked up)
peptide: SDSCNS[pS]SSDIIRDAAE
notes: Rad18, human, residues 436-452, with L450A/L451A; source: synthetic peptide
Kd [3]: 450 nM
dH [3]: -2.39 kcal/mol
stoichiometry N [3]: 1.67

B3: Rad18-2P-D449A peptide (peptide, UniProt Q9NS91 436-452, looked up)
peptide: SDSCNS[pS]S[pS]DIIRALLE
notes: Rad18, human, residues 436-452, with D449A; source: synthetic peptide
Kd [3]: 77 nM
dH [3]: -1.11 kcal/mol
stoichiometry N [3]: 1.52

B4: Rad18 peptide containing phosphorylated Ser442 and Ser444 (Rad18-2P) (peptide, UniProt Q9NS91 436-452, looked up)
peptide: SDSCNS[pS]S[pS]DIIRDLLE
notes: Rad18, human, Ser442/Ser444-containing region, residues 436-452; also called dually phosphorylated Rad18 peptide; source: synthetic peptide
Kd [4]: 2210 nM
dH [4]: -0.86 kcal/mol
stoichiometry N [4]: 1.16
Kd [5]: 31 nM
dH [5]: -2.98 kcal/mol
stoichiometry N [5]: 1.21
Kd [6]: 160 nM
dH [6]: -3.82 kcal/mol
stoichiometry N [6]: 1.45
Kd [7]: 116 nM
dH [7]: -5.07 kcal/mol
stoichiometry N [7]: 1.31
dH [1]: -4.04 kcal/mol
stoichiometry N [1]: 1.28

B5: Rad18-2P-N440A peptide (peptide, UniProt Q9NS91 436-452, looked up)
peptide: SDSCAS[pS]S[pS]DIIRDLLE
notes: Rad18, human, residues 436-452, with N440A; source: synthetic peptide
Kd [3]: 44 nM
dH [3]: -2.54 kcal/mol
stoichiometry N [3]: 1.76

B6: BRCTide, phosphopeptide optimized for binding to the BRCA1 tBRCT (peptide)
peptide: GAAYDI[pS]QVFPFAKKK
notes: source: synthetic peptide
Kd [3]: 27500 nM
dH [3]: -0.75 kcal/mol
stoichiometry N [3]: 1.12

Second part, the molecule after the results:

dH [1]: -1.1 kcal/mol
stoichiometry N [1]: 1.28
Molecule: Rad18-pS444 peptide (from UniProt Q9NS91 436-452)

binding to SLF1^tBRCT by ITC (in words) [2]: undetectable
Molecule: Rad18-pS442-4A: Rad18-pS442 peptide with I446A/I447A/L450A/L451A substitutions (SDSCNS[pS]SSDAARDAAE)

dH [1]: -1.79 kcal/mol
stoichiometry N [1]: 1.13
Molecule: singularly phosphorylated Rad18-pS442 peptide (from UniProt Q9NS91 436-452)

binding to SLF1^tBRCT by ITC (in words) [2]: undetectable
Molecule: Rad18-pS442-2IA: Rad18-pS442 peptide with I446A/I447A substitution (SDSCNS[pS]SSDAARDLLE)

Kd [2]: 19700 ± 6460 nM
Molecule: CC[C@H](C)[C@H](NC(=O)[C@H](CC(=O)O)NC(=O)[C@H](COP(=O)(O)O)NC(=O)[C@H](CO)NC(=O)[C@H](CO)NC(=O)[C@H](CO)NC(=O)[C@H](CC(N)=O)NC(=O)[C@H](CS)NC(=O)[C@H](CO)NC(=O)[C@H](CC(=O)O)NC(=O)[C@@H](N)CO)C(=O)N[C@H](C(=O)N[C@@H](CCCNC(=N)N)C(=O)N[C@@H](CC(=O)O)C(=O)N[C@@H](CC(C)C)C(=O)N[C@@H](CC(C)C)C(=O)N[C@@H](CCC(=O)O)C(=O)O)[C@@H](C)CC [Rad18-pS444] (H-SDSCNSSS[pS]DIIRDLLE-OH)
